Test results from PMC6424596 (Current biology : CB, 2019).

Target: T1, Cdr2-flag (S. pombe, UniProt P87050 1-775)
T1 sequence (looked up): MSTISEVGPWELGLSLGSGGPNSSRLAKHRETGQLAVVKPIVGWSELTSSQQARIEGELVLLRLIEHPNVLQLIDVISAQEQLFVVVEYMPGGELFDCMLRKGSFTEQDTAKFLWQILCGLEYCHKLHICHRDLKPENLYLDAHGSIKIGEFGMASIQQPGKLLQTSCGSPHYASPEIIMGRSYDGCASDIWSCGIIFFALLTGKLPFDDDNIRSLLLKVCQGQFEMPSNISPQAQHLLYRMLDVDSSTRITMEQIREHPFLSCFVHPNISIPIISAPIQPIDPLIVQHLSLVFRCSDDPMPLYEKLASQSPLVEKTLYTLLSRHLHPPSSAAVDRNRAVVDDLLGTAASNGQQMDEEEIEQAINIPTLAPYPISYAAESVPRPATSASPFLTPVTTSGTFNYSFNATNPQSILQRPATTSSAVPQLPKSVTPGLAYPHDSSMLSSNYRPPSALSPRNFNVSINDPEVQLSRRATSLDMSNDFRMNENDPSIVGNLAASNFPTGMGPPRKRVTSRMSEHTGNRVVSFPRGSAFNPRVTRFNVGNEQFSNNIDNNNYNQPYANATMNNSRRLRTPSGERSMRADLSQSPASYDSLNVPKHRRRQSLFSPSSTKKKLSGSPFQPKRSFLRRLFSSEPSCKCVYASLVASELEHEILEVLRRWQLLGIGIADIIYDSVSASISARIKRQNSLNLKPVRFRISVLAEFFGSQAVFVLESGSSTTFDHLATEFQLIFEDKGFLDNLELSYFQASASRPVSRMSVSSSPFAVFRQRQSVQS
Experiment: co-IP

B1: Mid1–9A-myc13 (natural protein, S. pombe, UniProt P78953 1-920, looked up)
chain: MKEQEFSYREAKDVSLDSKGLENSFLSSPNREKTPLFFEGNSNETSGYDQTKNFTHGDGDMSLGNLSELNVATDLLESLDLRSMYMHGYGHLDSSFSSQHSPDNRKRMSATSVFKRINSEEEGRIPALTYSAGTMNSTSSSTASLKGADIVADYETFNPDQNLAELSFDRSKSSRKRAVEVAEFSRAKTMSPLEYTVQHPYQSHNELSTNPARARAGAVPNLARIPADVKPVPPAHLSASSTVGPRILPSLPKDTTEDNPALERVETTASLDMDYKPLEPLAPIQEAPVEDTSEPFSSVPEATLDDSDISTESLRKKVLAKMEAKRISAGSSYASTLRKVYDFSELSLPTNGKDYDELYLQSSRNSEPEISTIINDSLQQENMDEDISATSIPKSQAAYGHGSVTYHEVPRYNLTSASVGYSISSQRGRIKASSTIDNLSAILSSEDLRHPAMQPVPGTKRTYANYCENEPNKSSQSLVSSESHNVEGWNYSETGTVGFYDPSAEISASIDELRQSTPVARDSELLSRAHAFDLNRLDLPSQDKSTSYEVPNGTENQSPRPVTSLGFVNETFFEEKPKAPLPLGRFYIHLNSILNISISEVHSPIKIIVNTPTQNMQLPWQAVNGNNRLDHDFAFHVDDNFKVSFMFLDIPIEDKSNGSKGVSATKDVSNGKPAETKSKARKFFDKLFNRRKKRKLNKAAAVENSKAKKSVVIKKVSGTATLNLGNVKDSCFGKAFNVEIPIISRGFLEAIPVKINSIGKRTLGNLTLTCLYIPELSVPEQELPFTLEQATMDLRHVRSNYLYNEGYLYRLEDSSIRRRFVVLRSKQLNFYAEKGGQYLDTFQLSKTVVSIPMVNFSEAVSNLGLVAGILATSVDRRHVQLFADSKKVCQKWLQVMNSRSFALDRGTEKLWLQEYVNFMA
fold co-immunoprecipitated against Mid1-myc13: ~2 fold
